Assay results published in publication PMC314469, “Protein Interaction Networks by Proteome Peptide Scanning” (PLoS Biology, 2004).

T1: Boi1 SH3 (BOI1_YEAST), P38041
T1 chain: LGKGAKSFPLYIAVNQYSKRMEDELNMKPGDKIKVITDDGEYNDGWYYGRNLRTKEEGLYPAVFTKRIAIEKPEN

T2: Boi2 SH3 (BOI2_YEAST), P39969
T2 chain: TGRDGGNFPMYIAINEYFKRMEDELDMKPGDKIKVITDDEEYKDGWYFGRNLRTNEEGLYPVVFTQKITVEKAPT

T3: Myo5 SH3 (MYO5_YEAST), Q04439
T3 chain: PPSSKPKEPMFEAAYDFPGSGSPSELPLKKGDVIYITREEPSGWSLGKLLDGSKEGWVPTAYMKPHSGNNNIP

T4: Rvs167 SH3 (RV167_YEAST), P39743
T4 chain: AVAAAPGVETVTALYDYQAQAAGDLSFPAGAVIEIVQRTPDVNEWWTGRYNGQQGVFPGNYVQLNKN

T5: Yfr024 SH3 (LSB3_YEAST), P43603
T5 chain: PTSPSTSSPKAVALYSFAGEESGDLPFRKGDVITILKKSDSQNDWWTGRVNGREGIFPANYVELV

T6: Yhr016c SH3 (YSC84_YEAST), P32793
T6 chain: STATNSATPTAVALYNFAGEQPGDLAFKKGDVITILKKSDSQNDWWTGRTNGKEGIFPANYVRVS


How the values were obtained:
Assay in all cases: SPOT array
[1] = molecular target: T1, Boi1 SH3 (BOI1_YEAST), P38041
[2] = molecular target: T2, Boi2 SH3 (BOI2_YEAST), P39969
[3] = molecular target: T3, Myo5 SH3 (MYO5_YEAST), Q04439
[4] = molecular target: T4, Rvs167 SH3 (RV167_YEAST), P39743
[5] = molecular target: Sho1 SH3 (SHO1_YEAST), P40073
[6] = molecular target: T5, Yfr024 SH3 (LSB3_YEAST), P43603
[7] = molecular target: T6, Yhr016c SH3 (YSC84_YEAST), P32793

Chain of Sho1 SH3 (SHO1_YEAST), P40073 (P40073 295-366): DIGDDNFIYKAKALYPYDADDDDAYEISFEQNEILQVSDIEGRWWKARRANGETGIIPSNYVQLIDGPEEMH

normalised SPOT signal, Boehringer light units (BLU); mean over the file's lines of this peptide [1]	normalised SPOT signal, Boehringer light units (BLU); mean over the file's lines of this peptide [2]	normalised SPOT signal, Boehringer light units (BLU); mean over the file's lines of this peptide [3]	normalised SPOT signal, Boehringer light units (BLU); mean over the file's lines of this peptide [4]	normalised SPOT signal, Boehringer light units (BLU); mean over the file's lines of this peptide [5]	normalised SPOT signal, Boehringer light units (BLU); mean over the file's lines of this peptide [6]	normalised SPOT signal, Boehringer light units (BLU); mean over the file's lines of this peptide [7]	Binder
4910	506	8000	1240	585	3720	173	LNPNRRAPRRPLST [YJL128C 180-193]
88.9	0	102	67.3	54.9	11.4	22.9	LPEKKNSPTTPSVF [YOL152W 75-88]
93.4	8.8	118	35.5	1920	71.9	14.5	LNKTKLLPQSPILN [YJR005W 603-616]
97.3	72.5	22300	271	374	1440	202	LNTMKKRPAPPSLP [YOR231W 77-90]
71.2	7.9	86.4	63.3	56.9	38.6	19.7	LNRQKNYPDAPAIF [YKL216W 87-100]
63.9	39.1	153	60.3	20.5	2.4	23.9	LNGLKSSPADPHLS [YLR072W 61-74]
103	19.2	161	128	54.1	0	81	LNLSKDAPVPPAPE [YOL006C 316-329]
796	294	348	1340	661	2420	554	LMSLKRFPQLPSNT [YOL125W 162-175]

More lines, now with the values behind:

Binder	normalised SPOT signal, Boehringer light units (BLU); mean over the file's lines of this peptide [1]	normalised SPOT signal, Boehringer light units (BLU); mean over the file's lines of this peptide [2]	normalised SPOT signal, Boehringer light units (BLU); mean over the file's lines of this peptide [3]	normalised SPOT signal, Boehringer light units (BLU); mean over the file's lines of this peptide [4]	normalised SPOT signal, Boehringer light units (BLU); mean over the file's lines of this peptide [5]	normalised SPOT signal, Boehringer light units (BLU); mean over the file's lines of this peptide [6]	normalised SPOT signal, Boehringer light units (BLU); mean over the file's lines of this peptide [7]
LNATKISPSAPSKD [YAR002W 346-359]	51.9	0	114	29.4	31.8	38.8	8.4
LNFPKNIPTIPFYV [YDR402C 27-40]	92.6	-0	256	53	131	26.9	22.8
LPEPRFYPLSPKNN [YCL051W 94-107]	95.3	47	289	49.4	33	202	30.9
LNFKRLLPRDPSEK [YBR239C 260-273]	1070	57.4	554	1630	1360	1290	3490
LNQSKGQPFQPSPT [YBL101C 22-35]	139	0	255	111	24.8	16	26.4
LNRKKVTPQLPKVT [YFL013C 529-542]	384	27.9	500	75.9	263	142	22.7
LLPTKLIPSIPGGK [YER105C 312-325]	-0	3.5	172	17.2	17.1	154	14.3
LLVTKERPRFPEDD [YIL129C 688-701]	126	7.5	33.7	16.4	47.5	168	28.4
